# B1: empasiprubart (antibody, V domains shown)
# VH: EVQLVQSGAEVKKPGASVKVSCKASGYTFTDYNMDWVRQATGQGLEWIGDINPNYESTGYNQKFKGRATMTVDKSISTAYMELSSLRSEDTAVYYCAREDDHDAFAYWGQGTLVTVSS
# VL: DNVLTQSPDSLAVSLGERATISCRASKSVRTSGYNYMHWYQQKPGQPPKLLIYLASNLKSGVPDRFSGSGSGTDFTLTISSLQAEDAATYYCQHSRELPYTFGQGTKLEIK
# Assays:
# recombinant rat C2 (rat) [1] = test: Meso Scale Discovery (electrochemiluminescence plate binding assay); rat C2 coated on the plate; serial dilutions of antibody; binding and washing at pH 7.4; detection with Sulfo-tag goat anti-human IgG
# recombinant rat C2 (rat) [2] = test: Meso Scale Discovery (electrochemiluminescence plate binding assay); rat C2 coated on the plate; serial dilutions of antibody; binding and washing at pH 7.4 + 1.25 mM Ca2+
binder,measurement,setting,value
B1,maximum MSD signal,recombinant rat C2 (rat) [1],12000
same,maximum MSD signal,recombinant rat C2 (rat) [2],24700

# — paper PMC12852032
